The test system of series [1] is C[C@@H]1O[C@@H](Oc2ccc([N+](=O)[O-])cc2Cl)[C@@H](O)[C@H](O)[C@@H]1O. Nature of the series: purified protein. As to conditions: pH 6.0; 37.0 °C.
The target of another series is T1, BaGH29^26A (Bifidobacterium asteroides, UniProt A0A0F4KU40).
T1 construct: gene JF69_08700
Kind of series: X-ray crystallography. The following applies: co-crystallised with 5 mM 2'FL; active site. Type of series: binding.

Substrate in series [2]: C[C@@H]1O[C@@H](Oc2ccc([N+](=O)[O-])cc2Cl)[C@@H](O)[C@H](O)[C@@H]1O
Nature of the series: purified protein. The following applies: 50 mM citrate pH 6, 37 °C. The class given is biochemical, Streptococcus mitis.

Substrate in series [3]: C[C@@H]1O[C@@H](Oc2ccc([N+](=O)[O-])cc2Cl)[C@@H](O)[C@H](O)[C@@H]1O
Kind of series: purified protein. Type of series: biochemical, Niastella yeongjuensis. As to conditions: 50 mM citrate pH 6, 37 °C.

Substrate in series [4]: C[C@@H]1O[C@@H](Oc2ccc([N+](=O)[O-])cc2Cl)[C@@H](O)[C@H](O)[C@@H]1O
Nature of the series: purified protein. The class given is biochemical, Sphaerochaeta globosa. As to conditions: 50 mM citrate pH 6, 37 °C.

Substrate in series [5]: C[C@@H]1O[C@@H](Oc2ccc([N+](=O)[O-])cc2Cl)[C@@H](O)[C@H](O)[C@@H]1O
Nature of the series: purified protein. The class given is biochemical, Tannerella forsythia. The following applies: 50 mM citrate pH 6, 37 °C.

Substrate in series [6]: C[C@@H]1O[C@@H](Oc2ccc([N+](=O)[O-])cc2Cl)[C@@H](O)[C@H](O)[C@@H]1O
Kind of series: purified protein. The following applies: pH 6.0; 37.0 °C. This is another data set of the same source.

Substrate in series [7]: C[C@@H]1O[C@@H](Oc2ccc([N+](=O)[O-])cc2Cl)[C@@H](O)[C@H](O)[C@@H]1O
Kind of series: purified protein. Type of series: biochemical, Porphyromonas gingivalis. As to conditions: 50 mM citrate pH 6, 37 °C.

Substrate in series [8]: C[C@@H]1O[C@@H](Oc2ccc([N+](=O)[O-])cc2Cl)[C@@H](O)[C@H](O)[C@@H]1O
Kind of series: purified protein. The following applies: 50 mM citrate pH 6, 37 °C. The class given is biochemical, Bifidobacterium asteroides.

Substrate in series [9]: C[C@@H]1O[C@@H](Oc2ccc([N+](=O)[O-])cc2Cl)[C@@H](O)[C@H](O)[C@@H]1O
Kind of series: purified protein. Type of series: biochemical, Sphingopyxis terrae. As to conditions: 50 mM citrate pH 6, 37 °C.

With BsGH29^44B (Bacteroides sp. SM23_62), in series [1], the Michaelis constant (Km) worked out at 299.60 ± 25.340 µM.

In the case of LaGH29^3A (Lysobacter antibioticus), the Michaelis-Menten constant (Km) in [1] is 208.10 ± 33.240 µM.

In the case of RsGH29^3A (Rhodopirellula sp. SWK7), the Km in series [1] is 668.00 ± 69.040 µM.

On to “FbGH29^26A (Firmicutes bacterium CAG:345)”, for which the Km in [1] came out at 188.10 ± 32.870 µM.

With `C[C@@H]1O[C@@H](O)[C@@H](O)[C@H](O)[C@@H]1O` [Fuc], the X-ray crystallography entry at BaGH29^26A was “resulting in a complex with Fuc bound in the active site”.

B1: SmGH29^1B (Streptococcus mitis B6) (protein)
chain: MVREIKPHGPLPSQAQLAYLEDELAAFIHFGPNTFYDQEWGTGQEDSERFNPTRLDAREWVRVLKEMGFKKLILVVKHHDGFVLYPTAYTDYSVKASPWRNGEGDLLLEVSQAATEFDMDMGVYLSPWDAHSPLYHVDQEADYNAYYLAQLKEILSNPAYGNGGKFAEVWMDGARGEGAQKVNYEFEKWFETIRDLQGDCLIFSTEGTSIRWIGNERGYAGDPLWQKVNPDKLGTEAALDYLQHGDSSGTIFSIGEADVSIRPGWFYHEEQDPKSLEELVEIYFHSVGRGTPLLLNIPPNQDGLFDEKDIKRLYEFATYRNELYKEDLALGAKVYGPALSADFACHHLTDGLESSSWASDADLPIQLELDLGFPKTFDVIELREDLKLGQRIAAFHVQVEVDGVWQEFGTGFTVGHKRLLRGPLVEAQKVRVMITESQDLPVLTKISLYKTPSLSQKEVVQGLAFAEKSLSVAKGETLHFRIERSESNTPLEAKISIQPGTGVHGIAYQDEIQVLQFQAGESKKDLCLPTLHFAADKTLDFYLNLTVDGQLVDQLQVQVS
Take B1: in “purified protein [2]”, the Km stood at 289.50 ± 14.610 µM and the kcat is 0.865 s⁻¹.

B2: NyGH29^4A (Niastella yeongjuensis) (protein)
chain: QTYSPNWESLDARPAPQWFKDAKFGIFIHWGVYSVPAWAPVGKDYAVYSKYSEWYWNRLVTDSSKVGKAFRAYHNSTYGPNFKYQDFAPLFKAELFNPEQWADVFKNAGAQYVVLTSKHHDGFALWPSAEAWNWNAADVGPHKDLAGELTNAVKEKGLHMGFYYSLYEWFNPLYKSDIDKYVSEHMMPQLKDLVNRYKPDIIWPDGEWEHPSETWKSTQFLAWLYNESPVKNTVVVNDRWGKETRSKHGGYYTTEYDIVHNEDASKKQFEHPWEECRGIGGSFGYNRNETLGDYETSDAVIHMLIQKVARGGNLLLDIGPAADGTIPVIMQQRLADMGAWLKTNGEAIFGTTATKQPSINGAWFTQKNMDLYVILTAKMDKPLTFDLATAPGKATLLGVNKKVTVSYRSGKCTINPLELYPNLPAGGYAWVIKLEGAAGK
Consider B2, for which, in “purified protein [3]”, the Km was found to be 279.80 ± 10.820 µM and the kcat came to 0.00383 s⁻¹.

B3: SgGH29^9A (Sphaerochaeta globosa str. Buddy) (protein)
chain: MKHEAVQQWLDLQFGLFIHFGLYSLPGGVWKGERITRGYSEQILSHGYLPQADYEALTEQFSLPEFNPKHIVTTAKQAGMRYLVITTKHHDGFCLFDTNTTDYKSTNAACKRDIVKDLSDECKKQGLAFGIYFSWIDWHFSEAAAISSHNSDPIPSSHQRLNIAQLTELLSNYGPMCELWMDMGAPTAEQSQEVYDLVQSLQPQCMVNGRIWNDKQDFLTMGDNQLPAVPLNCPWQTPASIYKETWGYRSWQVRGDRDEKIQELSDTARKVVQEGGNYLLNIGLMGTGAIQSFEQEVLEGIGTVLAKNPLKREQNKRILPKIVPGQLCAEPLVAYRYTGTEYYSYRPIPTTLCWALQLNEDTSICIGWESDQGLAREQKLCLEIAGKQYYSSLQKGRTSDTFITALKLKKGKHEICLHTIGDELKRPELVDTTLRLVLRKEGK
Turning to B3, in “purified protein [4]”, the Km was 495.20 ± 171.80 µM and the catalytic constant (kcat) was 2.4117 s⁻¹.

B4: TfFuc1^8A (Tannerella forsythia 92A2) (protein)
chain: PAQPGYTPSADNLKARETFQDDKFGIFIHWGIYSMLADGEWVMHNKNLNWEEYAKLASGFYPAKFNAAEWVAAIKASGAKYITITSRHHDGFSMYATQQSDYNIVDATPFKRDVIHELADECRKQGIRLHLYYSHLDWRRDDYYPLGRTGKGTGRTTQGKWEDYCAFMNNQLTELLTNYGLIGAIWFDGMWDKDIYPDGMTAKTWNLNEQYTLIHRLQPACLIGNNHHITPFAGEDIQIFERDLPGENKAGLSGQDISRLPLETCETMNGMWGYKITDQDYKSTKILIQYLVKAAGKNANLLMNVGPQPNGELPTVAVQRLREMGEWMKIYAPTIQGTRGGVVTPRDWGVTTQKGKTLYVHVLNLDDKALFLPYAGNKLKSAVEYQSRKSVRFIQDRDGILLKFTDKPHSPDYVLELTFANELPLN
Regarding B4, in the series “purified protein [5]”, the Km came out at 153.70 ± 21.810 µM and the kcat was 8.9117 s⁻¹.

B5: RiGH29^2A (Roseburia intestinalis) (protein)
chain: MSEQQKEQQLLETVDRIIAEGPYQPAWSSLMQTKTPDWFKQKRFGIFIHWGVYSVPANSNEWYPRNMYIEGMPAYEHHIKTYGSQKDFGYKDFIPMFHAEKFDPAEWVRLFKEAGAGYVFPVAEHHDGFQMYKSELSHWNSAEMGPKRDVLGELKAEIEKQGLTFCTSSHRAEHWFFLGHGKEFDSDIKEPLQKGDLYWPSMPEPDAEDLYGEPYPTEEFLNDWLARTAEIILNYKPSLLYFDWWVQHQAFKPYLKKLAAFYYNCGVKWGKDVKICYKHDAMMFGSGIVEVERGGFAEAKPYDWQTDTAVARNSWCYTDTLDYKSSNEIICTLVDVVSKNGNLLLNIGPKADGTIPDGDRAILEDLAKWMKVNSEAVIGANVWRKSMEGPTAAAEGQFQDQKELKFTNKDYRFTINHGNIYAIALQCPKDGVFCIRSLADSSDQNVPEFHGIIESVDILGYDGRLQWSVDGEGLHVTAPGIDSEFPVVVRVRPE
With B5, the Km in the series “purified protein [6]” is 302.30 ± 7.0500 µM.

B6: PgGH29^1B (Porphyromonas gingivalis ATCC 33277) (protein)
chain: GQGQEVYYPGSVVFPADATLEQKVEMAAKVVPTLQQLAWQQMELTAFLHFGINTFTDSEWGDGKEDPALFNPVELDARQWVRILHEAGFRMVILTAKHHDGFCLWPTATTRHSVASSPWREGKGDVVKEVRAACEEYGMKFGIYLSPWDRNAECYGDSHRYNRFFVSQLTELLTHYGEVHEVWFDGANGEGPNGKRQEYDWETFYDTIRRLQPQAVMAIMGDDVRWVGNERGLGRTTEWSATVLTPGIYSRSKTERNRLGIRENSPDLGSREVLKEAGEIFWYPSEVDVSIRPGWFYHAAEDKKVKSLDKLVDIYFQSVGYNSVLLLNVPPDRRGLIHEADALRLKEWADYLGRAFAHDRVVDSARYAVVQEHAVEEYALESKTHINILMLQEDITKGQRTEAFTVEAWVDGAWQEIGRGTTIGYKRLLRIPAVETDRIRVRIEQCRLPVNLCRVAVYYAEPPEQVVADESWNDIPRADWKLLSDDPLTIDLGREVMLRAFTYAPYKAEAKPTTAVRYRLAVSEDGRQWREIPTMGEFANVINNPLPQTVDMNQIVRTRFIRLDATAASGDKAVITMQEIGVTVE
Consider B6, for which, in “purified protein [7]”, the Km worked out at 302.10 ± 9.6900 µM and the turnover number (kcat) was found to be 1.8767 s⁻¹.

B7: BaGH29^26A (Bifidobacterium asteroides) (protein)
chain: MSDTVEWFKQAKYGMMIHWGLYSLLGGEYQGKSSSNYAEWVQSKLQIPNKEYERLTQAFNPIYFDADAIIDLAKRCGMQYLVVTTKHHDGFAMYRSLVDPYNVYDATPFHRDVIGELSLACRKAGLRFGLYYSQDLDWHEPDGGGYLSNDIETAGTTWDNSWDFTGEKNYDRAFKHKIMPQIEEIMSNYGEISVAWFDVPMTLSDEQSQTIYDTVKRLQPDCLINSRLGNGRYDYVSLGDNEIPEDSDASDKATSDGNVDYNSIEGFKPSKLGLYETAGTINDSWGFAYHDQNWKSPQTIHDYKAHLNKYGINYLLNVGLDGLGRVPMAAEQALLGARALEA
B7: in “purified protein [8]”, the Km was 222.00 ± 20.100 µM and the kcat is 12.108 s⁻¹.

B8: StGH29^nc (Sphingopyxis terrae subsp. ummariensis) (protein)
chain: AATVTGAGLGPQPRFPITGLPVLNPILRLYPEKSVFRSGDIRFGVGELEMMIPFLGTGEIVWSVNVSEAKRYRIALCYSTVNETQPVTISVNGQDVPFAAPRTKGYFIPHPEGPVDDPGDPDTDGFWRMREYYLFERKPVAGEVDLVRGVNVVKLKVTAPKGKEAFRLRSIELTPVDKVAEIEADLTRQRANRANTDWFANAGYGMWFHFLDLTTPRVGPRKSYEDAVNALDVPKLAKMVDDCGARYLIWTVNHGNPTCPAPIKAWERLHPGMTTKRDLIMELADELAKYNIELMLYQNCPGTGGLIQQHQRAIDTPTFSEVEYANQLIDVFNEFGARYGTKVKGWWLDSWFQTMESYPNLPNEAINRAIKSGNRNCMSSFNGWAFPNEVECQDYWCGEITDLPAKPFGARYLKDGPAAGLQAHSAIKLDAPWFHVTENMEMEPPLYSARELADYIAICQRDQAPVTLGVGIYQDGTIGPKSYAVLTELRGLIRKGKARR
As for B8, in the series “purified protein [9]”, the Km came to 290.60 ± 19.810 µM and the kcat came to 0.00733 s⁻¹.

The values are drawn from publication PMC11189522, “Exploring the sequence-function space of microbial fucosidases” (Communications Chemistry, 2024).
